According to publication PMC4288179, “Synergic interplay of the La motif, RRM1 and the interdomain linker of LARP6 in the recognition of collagen mRNA expands the RNA binding repertoire of the La module”:

How the values were obtained:
Experiment in all cases: ITC; ITC: 20 mM Tris pH 7.25, 100 mM KCl, 5 mM MgCl2, 1 mM DTT, 298 K; protein titrated into RNA
Settings in all cases: protein: recombinant; tags: N-terminal His6 (TEV-cleavable); stem-loop with internal bulge
[1] = molecular target: T1, HsLARP6(70-300) D112A (Homo sapiens, UniProt Q9BRS8 70-300, D112A)
T1 sequence: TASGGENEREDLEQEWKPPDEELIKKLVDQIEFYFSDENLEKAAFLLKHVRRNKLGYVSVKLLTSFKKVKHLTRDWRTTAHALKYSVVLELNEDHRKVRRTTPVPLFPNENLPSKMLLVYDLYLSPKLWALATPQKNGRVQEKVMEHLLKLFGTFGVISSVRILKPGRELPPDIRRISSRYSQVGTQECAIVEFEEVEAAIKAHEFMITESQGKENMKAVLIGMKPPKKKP

[2] = molecular target: T2, HsLARP6(70-295) (Homo sapiens, UniProt Q9BRS8 70-295)
T2 sequence: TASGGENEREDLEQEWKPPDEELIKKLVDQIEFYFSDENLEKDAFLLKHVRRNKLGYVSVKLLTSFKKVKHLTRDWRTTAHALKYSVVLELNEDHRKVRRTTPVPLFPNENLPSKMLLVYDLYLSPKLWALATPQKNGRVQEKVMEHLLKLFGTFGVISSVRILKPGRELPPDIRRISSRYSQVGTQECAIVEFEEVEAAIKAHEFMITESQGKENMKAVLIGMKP

[3] = molecular target: T3, HsLARP6(70-300) I260A (Homo sapiens, UniProt Q9BRS8 70-300, I260A)
T3 sequence: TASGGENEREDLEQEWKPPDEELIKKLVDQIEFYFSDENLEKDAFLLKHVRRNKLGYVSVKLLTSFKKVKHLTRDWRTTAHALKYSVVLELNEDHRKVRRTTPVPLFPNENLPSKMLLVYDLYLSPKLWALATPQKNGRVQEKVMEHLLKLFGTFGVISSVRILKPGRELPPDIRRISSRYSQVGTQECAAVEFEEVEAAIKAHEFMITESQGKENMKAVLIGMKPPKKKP

[4] = molecular target: T4, HsLARP6(74-313) (Homo sapiens, UniProt Q9BRS8 74-313)
T4 sequence: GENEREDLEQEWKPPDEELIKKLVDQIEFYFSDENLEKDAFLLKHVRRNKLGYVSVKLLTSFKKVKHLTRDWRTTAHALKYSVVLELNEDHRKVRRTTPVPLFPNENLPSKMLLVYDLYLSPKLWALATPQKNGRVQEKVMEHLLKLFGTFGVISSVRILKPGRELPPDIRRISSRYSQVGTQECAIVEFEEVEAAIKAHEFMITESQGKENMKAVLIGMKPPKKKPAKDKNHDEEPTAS

[5] = molecular target: T5, HsLARP6(70-300) L187A (Homo sapiens, UniProt Q9BRS8 70-300, L187A)
T5 sequence: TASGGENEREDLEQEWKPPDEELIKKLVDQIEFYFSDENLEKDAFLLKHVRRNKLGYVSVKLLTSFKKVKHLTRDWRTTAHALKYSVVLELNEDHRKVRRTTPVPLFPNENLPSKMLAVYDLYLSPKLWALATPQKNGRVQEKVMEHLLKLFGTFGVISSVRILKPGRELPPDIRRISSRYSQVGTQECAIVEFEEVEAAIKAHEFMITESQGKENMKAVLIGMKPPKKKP

[6] = molecular target: T6, HsLARP6(70-300) R231A (Homo sapiens, UniProt Q9BRS8 70-300, R231A)
T6 sequence: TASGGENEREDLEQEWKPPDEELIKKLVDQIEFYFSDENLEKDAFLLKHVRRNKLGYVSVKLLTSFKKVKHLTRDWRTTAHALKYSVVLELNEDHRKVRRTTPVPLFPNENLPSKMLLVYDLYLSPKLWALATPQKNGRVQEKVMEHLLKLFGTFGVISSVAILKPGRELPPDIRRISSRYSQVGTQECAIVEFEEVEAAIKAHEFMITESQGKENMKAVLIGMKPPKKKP

[7] = molecular target: T7, HsLARP6(70-300) N180R (Homo sapiens, UniProt Q9BRS8 70-300, N180R)
T7 sequence: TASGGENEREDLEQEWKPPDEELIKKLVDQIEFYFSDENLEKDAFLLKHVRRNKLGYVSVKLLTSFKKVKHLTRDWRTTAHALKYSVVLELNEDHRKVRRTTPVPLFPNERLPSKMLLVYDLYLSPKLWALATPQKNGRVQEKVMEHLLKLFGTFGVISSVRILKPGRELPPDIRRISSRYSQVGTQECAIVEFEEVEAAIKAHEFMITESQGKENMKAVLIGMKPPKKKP

[8] = molecular target: T8, HsLARP6(70-300) Y189A (Homo sapiens, UniProt Q9BRS8 70-300, Y189A)
T8 sequence: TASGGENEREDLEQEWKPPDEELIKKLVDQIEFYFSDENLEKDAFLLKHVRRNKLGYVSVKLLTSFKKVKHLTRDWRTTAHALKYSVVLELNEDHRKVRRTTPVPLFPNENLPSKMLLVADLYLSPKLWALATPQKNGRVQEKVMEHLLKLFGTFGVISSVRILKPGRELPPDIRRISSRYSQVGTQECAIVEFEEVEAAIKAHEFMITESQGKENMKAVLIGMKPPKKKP

CCACAAAGAGUCUACAUGUCUAGGGUCUAGACAUGUUCAGCUUUGUGG (structured_RNA) [48 nt RNA (collagen alpha1(I) 5' UTR SL)]
Kd [1]: 172 nM | Kd [2]: 77 nM | Kd [3]: 26 nM | Kd [4]: 26 nM | Kd [5]: 19 nM | Kd [6]: 20 nM | Kd [7]: 32 nM | Kd [8]: 59 nM
